Reference: publication PMC6135800, “STAT3-coordinated migration facilitates the dissemination of diffuse large B-cell lymphomas” (Nature Communications, 2018)

Target: T1, FLAG-RhoGDI-γ (immobilized) (UniProt Q99819 1-225)
T1 construct: RhoGDIγ, full-length cDNA NM_001176 inserted into pFLAG-CMV2
T1 sequence (looked up): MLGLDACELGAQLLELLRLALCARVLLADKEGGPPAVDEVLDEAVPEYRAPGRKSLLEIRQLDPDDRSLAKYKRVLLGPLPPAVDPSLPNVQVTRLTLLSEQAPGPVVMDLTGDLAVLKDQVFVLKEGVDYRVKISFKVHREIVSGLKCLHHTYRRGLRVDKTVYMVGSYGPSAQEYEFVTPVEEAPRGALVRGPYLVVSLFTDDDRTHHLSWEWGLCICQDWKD
Assay: pull-down; competition assay: purified GST-RhoH and RhoA incubated with immobilized FLAG-RhoGDI-γ for 2 h; increasing doses of RhoH
Conditions: both partners purified

binding result: binds
B1: GST-RhoH (natural protein, UniProt Q15669 1-191, looked up)
chain: MLSSIKCVLVGDSAVGKTSLLVRFTSETFPEAYKPTVYENTGVDVFMDGIQISLGLWDTAGNDAFRSIRPLSYQQADVVLMCYSVANHNSFLNLKNKWIGEIRSNLPCTPVLVVATQTDQREMGPHRASCVNAMEGKKLAQDVRAKGYLECSALSNRGVQQVFECAVRTAVNQARRRNRRRLFSINECKIF
notes: RhoH; the only GST vector named is pEBG-RhoH, made by inserting full-length cDNAs (RhoH: NM_001278369); also called GST-tagged RhoH; source: E. coli DH5α, IPTG induction, purified (glutathione-Sepharose, eluted with reduced glutathione)
